According to publication PMC7093963, “DDX39B interacts with the pattern recognition receptor pathway to inhibit NF-κB and sensitize to alkylating chemotherapy”:

Biological target: His-DDX39B (UniProt Q13838 1-428)
Test: EMSA; 0-300 ng protein; bound more than -1A; EMSA: bacterially expressed DDX39B, 32P probes, non-denaturing 5% acrylamide gel; binding buffer, salt, pH and temperature not given. Pull-down: U87 nuclear extract pre-cleared with non-specific biotin DNA, 2 h with probe
Details: protein: recombinant; tags: N-terminal His (pET-45b, 5' polyhistidine); label: 32P (T4 PNK); blunt

His-DDX39B, sequence (Q13838 whole entry): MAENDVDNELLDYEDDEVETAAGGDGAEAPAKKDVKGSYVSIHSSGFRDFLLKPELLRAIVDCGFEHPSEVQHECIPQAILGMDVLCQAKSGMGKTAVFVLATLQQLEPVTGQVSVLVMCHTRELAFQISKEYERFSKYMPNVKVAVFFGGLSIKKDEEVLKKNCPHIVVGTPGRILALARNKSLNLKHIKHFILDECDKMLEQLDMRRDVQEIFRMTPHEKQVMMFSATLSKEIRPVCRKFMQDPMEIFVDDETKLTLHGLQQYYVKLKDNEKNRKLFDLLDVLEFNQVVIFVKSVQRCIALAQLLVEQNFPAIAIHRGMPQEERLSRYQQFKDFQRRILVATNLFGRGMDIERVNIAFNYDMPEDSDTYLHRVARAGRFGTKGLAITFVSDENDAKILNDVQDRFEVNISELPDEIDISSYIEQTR

B1: -1C kB probe (dsDNA)
DNA 1: TCGAGTTAGATGGGGACTTTCCAGGCAC
DNA 2: GTGCCTGGAAAGTCCCCATCTAACTCGA
binding result: binds
